This data set deals with the molecule itself. The experiment in a line: gel filtration chromatography through Sephadex G-100 (self-association / homodimerization). As for the experimental part:
Gel Filtration Chromatography: Gel filtration chromatography of recombinant human SULT2A1 was performed at 4° C. with a 2×25 cm column of Sephadex G-100 superfine. The mobile phase was 5 mM K phosphate buffer, pH 7.5, and 3 ml fractions were collected at a flow rate of approximately 1.8 mL per h. The fractions were assayed for SULT2A1 activity. Standards for column calibration were eluted separately and included Dextran Blue 2000, bovine serum albumin (67 kDa), ovalbumin (45 kDa), chymotrypsinogen A ([…]) and ribonuclease A (13.7 kDa).
The Ala261 Thr polymorphism is located within the dimerization motif at the C-terminus of the conserved 'Region IV' SULT signature sequence, and may alter the formation of the SULT2A1 homodimer. To test that hypothesis, recombinant WT and codon Thr261 variant allozyme preparations were subjected to gel filtration chromatography through Sephadex G-100.

B1: wild type SULT2A1 polypeptide (reference human SULT2A1) (enzyme)
chain: MSDDFLWFEGIAFPTMGFRSETLRKVRDEFVIRDEDVIILTYPKSGTNWLAEILCLMHSKGDAKWIQSVPIWERSPWVESEIGYTALSESESPRLFSSHLPIQLFPKSFFSSKAKVIYLMRNPRDVLVSGYFFWKNMKFIKKPKSWEEYFEWFCQGTVLYGSWFDHIHGWMPMREEKNFLLLSYEELKQDTGRTIEKICQFLGKTLEPEELNLILKNSSFQSMKENKMSNYSLLSVDYVVDKAQLLRKGVSGDWKNHFTVAQAEDFDKLFQEKMADLPRELFPWE
notes: Recombinant protein expressed in COS-1 cells from pCR3.1 and used as an unpurified high speed supernatant cytosol preparation; The pair written here is its self-association into the homodimer; also called WT; WT enzyme
Consider B1, for which the binding result is recorded as “binds”.

B2: SULT2A1 Ala261Thr allozyme (enzyme)
chain: MSDDFLWFEGIAFPTMGFRSETLRKVRDEFVIRDEDVIILTYPKSGTNWLAEILCLMHSKGDAKWIQSVPIWERSPWVESEIGYTALSESESPRLFSSHLPIQLFPKSFFSSKAKVIYLMRNPRDVLVSGYFFWKNMKFIKKPKSWEEYFEWFCQGTVLYGSWFDHIHGWMPMREEKNFLLLSYEELKQDTGRTIEKICQFLGKTLEPEELNLILKNSSFQSMKENKMSNYSLLSVDYVVDKAQLLRKGVSGDWKNHFTVTQAEDFDKLFQEKMADLPRELFPWE
notes: Recombinant variant made by site directed mutagenesis and expressed in COS-1 cells from pCR3.1; It was used as an unpurified cytosol preparation; also called codon Thr261 variant allozyme
As for B2, the binding result is “no binding”.

Values taken from US7056731 (MAYO FOUNDATION FOR MEDICAL EDUCATION AND RESEARCH, dated 2006).
